Source: patent US20240043508A1

B1: RD3 (antibody, V domains shown)
VH: EVQLLESGGGLVQPGGSLRLSCAASGFTFSDYAMSWVRQAPGKGLEWVSWIYSGSGNKYYADSVKGRFTISRDNSKNTLYLQMNSLRAEDTAVYYCARFPIARTSNSQSSYDGMDVWGQGTLVTVSS
VL: QSVLTQPPSASGTPGQRVTISCSGSSSNIGSNAVSWYQQLPGTAPKLLIYADNKRPSGVPDRFSGSKSGTSASLAISGLRSEDEADYYCGAWDSSLNAYVFGGGTKLTVL
B2: K202.A (bispecific antibody)
heavy: EVQLLESGGGLVQPGGSLRLSCAASGFTFSDYAMSWVRQAPGKGLEWVSWIYSGSGNKYYADSVKGRFTISRDNSKNTLYLQMNSLRAEDTAVYYCARFPIARTSNSQSSYDGMDVWGQGTLVTVSSASTKGPSVFPLAPCSRSTSESTAALGCLVKDYFPEPVTVSWNSGALTSGVHTFPAVLQSSGLYSLSSVVTVPSSSLGTKTYTCNVDHKPSNTKVDKRVESKYGPPCPPCPPCPAPEFLGGPSVFLFPPKPKDTLMISRTPEVTCVVVDVSQEDPEVQFNWYVDGVEVHNAKTKPREEQFNSTYRVVSVLTVLHQDWLNGKEYKCKVSNKGLPSSIEKGQPREPQVYTLPPSQEEMTKNQVSLTCLVKGFYPSDIAVEWESNGQPENNYKTTPPVLDSDGSFFLYSRLTVDKSRWQEGNVFSCSVMHEALHNHYTQKSLSLSLGK
light: QSVLTQPPSASGTPGQRVTISCSGSSSNIGSNAVSWYQQLPGTAPKLLIYADNKRPSGVPDRFSGSKSGTSASLAISGLRSEDEADYYCGAWDSSLNAYVFGGGTKLTVLVAAPSVFIFPPSDEQLKSGTASVVCLLNNFYPREAKVQWKVDNALQSGNSQESVTEQDSKDSTYSLSSTLTLSKADYEKHKVYACEVTHQGLSSPVTKSFNRGEC
scFv: EVQLLESGGGLVQPGGSLRLSCAASGFTFSSYDMSWVRQAPGKGLEWVSGISYSGGSTYYADSVKGRFTISRDNSKNTLYLQMNSLRAEDTAVYYCARDVNFVPLVTFDYWGQGTLVTVSSGGGGSGGGGSGGGGSQSVLTQPPSASGTPGQRVTLSCTGSSSNIGSNSVTWYQQLPGTAPKLLIYDDNQRPSGVPDRFSGSKSGTSASLAISGLRSEDEADYYCGTWDYSLSAYVFGGGTKLTVL
B3: K202.B (bispecific antibody)
heavy: B2 heavy
light: B2 light
scFv: B2 scFv

Target: SARS-CoV-2 S protein of the B.1 (D614G) variant, on pseudotyped lentiviral particles (SARS-CoV-2)
Assay: cell-based or functional assay

Binder	IC50 (nM), pseudotyped virus infection [nM]	IC50 (nM), pseudovirus neutralization, luciferase in 293T/hACE2 cells [nM]
B1	2.22	1.4
B2	0.39	–
B3	0.12	–
